Patent US20240425571A1 (OHIO STATE INNOVATION FOUNDATION, published 2024)
Changes are numbered by the printed parent chain.

T1: human GARP (glycoprotein A repetitions predominant, LRRC32) on the cell surface (human, UniProt Q14392 20-662)
T1 construct: whole, on cells; also called hGARP; free GARP
T1 sequence (looked up): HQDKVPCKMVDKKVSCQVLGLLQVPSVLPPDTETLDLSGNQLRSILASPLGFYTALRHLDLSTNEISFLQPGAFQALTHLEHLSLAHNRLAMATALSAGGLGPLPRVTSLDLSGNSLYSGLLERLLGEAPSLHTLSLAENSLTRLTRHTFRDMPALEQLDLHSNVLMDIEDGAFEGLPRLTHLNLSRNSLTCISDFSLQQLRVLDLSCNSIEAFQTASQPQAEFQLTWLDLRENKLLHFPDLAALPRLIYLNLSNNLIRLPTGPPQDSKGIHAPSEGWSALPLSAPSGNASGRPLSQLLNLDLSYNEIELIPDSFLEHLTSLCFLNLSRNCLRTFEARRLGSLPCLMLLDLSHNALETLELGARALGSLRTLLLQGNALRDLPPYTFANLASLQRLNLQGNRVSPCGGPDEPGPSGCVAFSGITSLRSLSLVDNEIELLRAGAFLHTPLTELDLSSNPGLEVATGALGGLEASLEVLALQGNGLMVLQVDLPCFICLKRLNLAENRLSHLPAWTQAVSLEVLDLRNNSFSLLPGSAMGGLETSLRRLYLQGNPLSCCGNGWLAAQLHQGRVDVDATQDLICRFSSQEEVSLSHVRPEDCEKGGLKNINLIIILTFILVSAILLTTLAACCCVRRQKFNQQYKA

T2: human GARP (antigen, construct not stated) (human, UniProt Q14392 20-627, limits assumed)
T2 sequence (looked up): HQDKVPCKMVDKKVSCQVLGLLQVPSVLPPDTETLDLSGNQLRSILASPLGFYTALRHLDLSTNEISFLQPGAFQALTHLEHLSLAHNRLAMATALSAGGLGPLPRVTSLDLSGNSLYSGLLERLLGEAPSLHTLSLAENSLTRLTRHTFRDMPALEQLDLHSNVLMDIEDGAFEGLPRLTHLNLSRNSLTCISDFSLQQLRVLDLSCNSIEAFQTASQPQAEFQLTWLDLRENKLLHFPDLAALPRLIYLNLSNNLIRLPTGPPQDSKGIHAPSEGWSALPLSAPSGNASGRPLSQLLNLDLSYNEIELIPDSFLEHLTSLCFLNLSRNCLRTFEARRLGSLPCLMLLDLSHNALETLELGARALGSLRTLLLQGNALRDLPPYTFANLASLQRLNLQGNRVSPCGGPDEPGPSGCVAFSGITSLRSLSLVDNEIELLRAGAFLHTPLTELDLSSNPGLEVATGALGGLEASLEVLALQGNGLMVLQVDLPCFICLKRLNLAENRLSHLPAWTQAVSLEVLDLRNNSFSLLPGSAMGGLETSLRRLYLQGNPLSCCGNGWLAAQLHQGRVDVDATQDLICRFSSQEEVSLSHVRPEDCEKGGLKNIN

B1: huPIIO-1VH1VL1 (antibody, V domains shown)
VH: QVQLQESGPGLVKPSQTLSLTCTVSGYSITSDYAWNWIRQFPGNKLEWMGYISYSGSTSYTPSLKSRVTISRDTSKNHFSLKLSSVTAADTAVYYCAKSGGDYYGSSSYWYFDVWGQGTMVTVSS
VL: DIVLTQSPSSLAVSLGERATMNCKSSQSLLNSRSQKNYLAWYQQKPGQPPKLLIYGASTRGSGVPDRFSGSGSGTDFTLTISSLQAEDVAVYYCQNDHSYPFTFGQGTKLEIKR
notes: Humanized 4D3/PIIO-1 IgG made in Expi293 cells; also called H1L1; HuPIIO-1VH1/L1
B2: huPIIO-1VH2VL2 (antibody, V domains shown)
VH: B1 VH with V68I, S80F
VL: B1 VL with A19V, L84V
notes: Humanized IgG from Expi293, tested as culture supernatant; also called H2L2; HuPIIO-1VH2/L2
B3: huPIIO-1VH3VL1 (antibody, V domains shown)
VH: B1 VH with Q1D, V68I, S80F, V93T, M120T
VL: B1 VL
notes: Humanized IgG from Expi293, tested as culture supernatant; also called H3L1; HuPIIO-1VH3/L1
B4: huPIIO-1VH3VL2 (antibody, V domains shown)
VH: B1 VH with Q1D, V68I, S80F, V93T, M120T
VL: B1 VL with A19V, L84V
notes: Humanized IgG from Expi293, tested as culture supernatant; also called H3L2
B5: huPIIO-1VH4VL2 (antibody, V domains shown)
VH: B1 VH with Q1D, V68I, S80F, K82Q, A89E, V93T, M120T
VL: B1 VL with A19V, L84V
notes: Humanized IgG from Expi293, tested as culture supernatant; also called H4L2; HuPIIO-1VH4/L2
B6: huPIIO-1VH1VL2 (antibody, V domains shown)
VH: B1 VH
VL: B1 VL with A19V, L84V
notes: Humanized IgG from Expi293; also called H1L2; HuPIIO-1VH1/L2
B7: huPIIO-1VH1VL3 (antibody, V domains shown)
VH: B1 VH
VL: B1 VL with L15A, A19V, N22S, L84V, Q106S
notes: Humanized IgG from Expi293, tested as culture supernatant; also called H1L3; HuPIIO-1VH1/L3
B8: huPIIO-1VH4VL3 (antibody, V domains shown)
VH: B1 VH with Q1D, V68I, S80F, K82Q, A89E, V93T, M120T
VL: B1 VL with L15A, A19V, N22S, L84V, Q106S
notes: Humanized IgG from Expi293, tested as culture supernatant; also called H4L3; HuPIIO-1VH4/L3
B9: huPIIO-1VH4VL1 (antibody, V domains shown)
VH: B1 VH with Q1D, V68I, S80F, K82Q, A89E, V93T, M120T
VL: B1 VL
notes: Humanized IgG from Expi293, tested as culture supernatant; also called H4L1; HuPIIO-1VH4/L1
B10: huPIIO-1VH3VL3 (antibody, V domains shown)
VH: B1 VH with Q1D, V68I, S80F, V93T, M120T
VL: B1 VL with L15A, A19V, N22S, L84V, Q106S
notes: Humanized IgG from Expi293, tested as culture supernatant; also called H3L3; HuPIIO-1VH3/L3
B11: huPIIO-1VH2VL3 (antibody, V domains shown)
VH: B1 VH with V68I, S80F
VL: B1 VL with L15A, A19V, N22S, L84V, Q106S
notes: Humanized IgG from Expi293, tested as culture supernatant; also called H2L3; HuPIIO-1VH2/L3
B12: huPIIO-1VH2VL1 (antibody, V domains shown)
VH: B1 VH with V68I, S80F
VL: B1 VL
notes: Humanized IgG from Expi293; also called H2L1; HuPIIO-1VH2/L1
B13: 5C5 (antibody, V domains shown)
VH: EVKLVESGGGSVKPGGSLKLSCAASGFTFSNYVMSWVRQTPEKRLEWVATISSGGSYTYYPDSVKGRLTISRDNAKNTLYLQMSSLRSEDTAMYYCARGYDNGDYVMDYWGQGTSVTVSS
VL: DIVLTQSPASLAVSLGQRATISCRASESVDTYGNSFMHWYQQIPGQPPKVLIYRASNLESGIPARFSGSGSRTDFTLTINPVEAGDVATYYCQQTNEHPPTFGGGTKLEIK
notes: anti-human GARP clone; printed 5C5 on the sheets, 5c5 / m5c5 / 5C5 in the text; also called m5c5

Assays:
[1] = biological target: T1, human GARP (glycoprotein A repetitions …); assay: FACS, Ag(+) cells, heated-sample series, 0 ug/ml antibody (blank)
[2] = biological target: T1, human GARP (glycoprotein A repetitions …); assay: FACS, Ag(+) cells, culture supernatant, 1 ug/ml
[3] = biological target: T2, human GARP (antigen, construct not …); assay: Gator label-free kinetics, IgG on anti-human Fc probe, antigen 5 ug/ml
[4] = biological target: T1, human GARP (glycoprotein A repetitions …); assay: FACS, Ag(+) cells, 0 ug/ml antibody (blank)
[5] = biological target: T1, human GARP (glycoprotein A repetitions …); assay: FACS, Ag(+) cells, supernatant heated 70 C 5 min, 5 ug/ml
[6] = biological target: T1, human GARP (glycoprotein A repetitions …); assay: FACS, Ag(+) cells, culture supernatant, 0.2 ug/ml
[7] = biological target: T1, human GARP (glycoprotein A repetitions …); assay: FACS, Ag(+) cells, culture supernatant, 5 ug/ml
[8] = biological target: T1, human GARP (glycoprotein A repetitions …); assay: FACS, Ag(+) cells, supernatant heated 70 C 5 min, 0.2 ug/ml
[9] = biological target: T1, human GARP (glycoprotein A repetitions …); assay: FACS, Ag(+) cells, supernatant heated 70 C 5 min, 1 ug/ml
[10] = biological target: T1, human GARP (glycoprotein A repetitions …); assay: flow cytometry on human Tregs (drawn table)

Binder | MFI [1] [MFI] | MFI [2] [MFI] | Kd [3] [nM] | Req [3] | Response [3] | kobs [3] | MFI [4] [MFI] | MFI [5] [MFI] | MFI [6] [MFI] | MFI [7] [MFI] | MFI [8] [MFI] | MFI [9] [MFI] | binding result [10]
B1 | 9.91 | 25.8 | 8.05 | 0.743 | 0.737 | 0.0134 | 9.91 | 26.2 | 23.9 | 26.4 |  |  | 
B2 | 9.91 |  |  |  |  |  | 9.91 | 26.1 | 23.2 | 26.2 | 22.6 | 24.8 | 
B3 | 9.91 | 25.1 |  |  |  |  | 9.91 | 25.7 | 23.9 | 26.7 | 23.6 |  | 
B4 | 9.91 | 24.9 |  |  |  |  | 9.91 | 26.5 | 22.7 | 26.4 | 22.7 | 24.6 | 
B5 | 9.91 | 24.9 |  |  |  |  | 9.91 | 25.1 | 22.4 | 26.3 | 21.7 | 25 | 
B6 | 9.91 | 25.2 | 8.15 | 0.831 | 0.824 | 0.0133 | 9.91 | 25.7 | 22.2 | 26.1 | 21.8 |  | 
B7 | 9.91 | 25.7 |  |  |  |  | 9.91 | 26.3 | 22.9 | 26.3 | 23 | 25.4 | 
B8 | 9.91 | 26.3 |  |  |  |  | 9.91 | 27 | 25 | 26.7 | 24.2 | 25.8 | 
B9 | 9.91 | 26.2 |  |  |  |  | 9.91 | 26.9 | 24.8 | 27.3 | 24.2 | 25.4 | 
B10 | 9.91 | 25.3 |  |  |  |  | 9.91 | 25.8 | 21.9 | 26.2 | 22.1 | 24.6 | 
B11 | 9.91 | 25.6 |  |  |  |  | 9.91 | 26.4 | 23.4 | 26.5 | 23.2 | 25.4 | 
B12 | 9.91 |  | 8.03 | 0.71 | 0.703 | 0.0133 | 9.91 | 26.2 | 23.3 | 26.8 | 23 | 25.1 | 
B13 |  |  |  |  |  |  |  |  |  |  |  |  | binds
